From the domain aggregation screens of Martell et al. (2025)

Test: soluble fraction after stress (log2 fold change); higher = more stays soluble; pooled small domains, quantitative proteomics
Settings: stress: pH 4
Summary of the method: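 Custom libraries of small protein domains were pooled and measured with high-throughput quantitative proteomics after pH 4 stress. The read-out is the fold change in the amount of each domain that stays soluble after the acid stress, taken as a measure of aggregation propensity. Fold changes are on a log2 scale, and higher values mean more of the domain stayed soluble.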
With “HMPLITAIELDSISARSFQFNTQSGSTYFIEGSTDLKSWDVIAEVKATDSTTTYEDHRKIYHEAYFYRVRL” the “soluble fraction (log2)” value was -1.55.
In the case of “HMPLITDIKIQVKNTEKVSLFVDGKYSFSLTISQLAEHKILKTNQEISAKQVAEFKKLSNLTNLYIRIVG”, the “soluble fraction (log2)” value is reported as -0.296.
For “HMPLITLSAEIQSEQIGQRLDQTLAELFPEYSRSRLKTWIEADLVKLNNQIVNIPREKVLGGEHVEITVDI”, the “soluble fraction (log2)” value was -0.792.
For “HMPLNRFLNLPHEDKERVLLIAKKQFSTHGYDAMSLNLLLKELDISKGQFYYWFEDKADLFFTVL”, the “soluble fraction (log2)” value was 0.0543.
For “HMPLRPNQRQFIHLMVYQGLDRNEAYAQANNKVLTEENYESIRTAAAKTFYTPHVNNYYHALMEEIRDRE”, the “soluble fraction (log2)” value was -0.404.
In the case of “HMPLSVRQRMSDILSNLKTSDFTNFADLFDPKEGRTGITVTFIAILELLREFLIEVVQSDHYQPLHVRAAS”, the “soluble fraction (log2)” value is reported as 0.115.
For “HMPLTAASLQTYLRGVDYPASKQDLIAHARKSDAPEDAITVLEQYSEQTYRSAADVSAEFGS”, the “soluble fraction (log2)” value was -0.156.
With “HMPLTEMAVRKHLSAELAQKGYTIDPRALEILLQRTNTNLTAIANELPKLLLVAEDKQITVNEVSAM” the “soluble fraction (log2)” value was -0.1.
In the case of “HMPLTKKLETLFSLFPKYEKELKKKGVTRIHVWANYKEEYPDGIGRSQFIHYYSFWKKQVSP”, the “soluble fraction (log2)” value is reported as -0.045.
With “HMPLVIIRGIEGVFSSEEKAEAIRKVTDALVSVKGENVRGFAWVVFEEVKSGDWGIGGESITAEKVIMSL” the “soluble fraction (log2)” value was -0.39.
With “HMPMDDETWDALSLFAYKRYARENGWPLMIGAEALRDTFASYFPLDSSTWQDRSSHYLTYQDGIYTRT” the “soluble fraction (log2)” value was -0.753.
For “HMPMDYFELFNIPRNANRETIKKILDQEYEKYRARVVSPVLEIRHEAELMLVEISKAKQVLLG”, the “soluble fraction (log2)” value was -0.223.
With “HMPMHPEDLKKLVSIEMPFGKHKGRIIADLPGNYLNWFAREGFPPGEIGRLLQLMQEIDHNGLSDLLKPLR” the “soluble fraction (log2)” value was -0.645.
For “HMPMNISDIIKQAREELGMTQEDLAERLEVSRQAVSKWELGASVPSPENLRLLEELLGVELPAP”, the “soluble fraction (log2)” value was -0.635.
With “HMPNFDPSYILDFGDVIQLQLVGQKNQILEIPILRDGSVNLPDIGKIFLSGMSLEEATKIIKDTYSA” the “soluble fraction (log2)” value was -1.28.
For “HMPNGEAYQRFTYENDILEGRFEEWDSLGTDIVKGDYTAGVRHKKWLYYDSEGRRDKFVFLDMDSI”, the “soluble fraction (log2)” value was -0.345.
In the case of “HMPNNNDIVLDRVSFGYHEKEVLHGIDMTIREGTVNALVGPSGSGKSTIAKLIAGLWDVDGGSISF”, the “soluble fraction (log2)” value is reported as 0.137.
For “HMPNPSAGRVHIDALLPFDRVEVTDMQGSLLLDHSFSPRRAVDLDLNARGTLLYTLWSKGHLLGKGRVVR”, the “soluble fraction (log2)” value was 0.213.
In the case of “HMPNQLLELVEMEIRDLLNEYEFPGDDTPIIQGSALKALEDPMGPWGDKIMDLMDAVDSYIPDPE”, the “soluble fraction (log2)” value is reported as -1.46.
In the case of “HMPPAIKTLMFMIQNKSLLKSPKQLAVVQQQLKKIKGVRDVLILLEEGKVMLKVNKHETIHEASIIRLLGG”, the “soluble fraction (log2)” value is reported as 0.00198.
In the case of “HMPPALTELLSVRTNASGTIDYLLPDRSAGLRVENGSKYSGMVPDSIYRLVAIYEIKDAKEPSAYIYTI”, the “soluble fraction (log2)” value is reported as -0.223.
With “HMPPFDDILAEYYEPLYRHVRRMVVSHDDAKDVMQEAMLRIFQGLDGLKDPSAVRTWVWRIATNEALRH” the “soluble fraction (log2)” value was -1.76.
For “HMPPPVDLDKKGYKLRGIVLEDGRSAAFVFVPAEKRVVVLRENASGPVRLLETGMRRIRLQTPEGAGYLEL”, the “soluble fraction (log2)” value was -0.259.
For “HMPPQPATQNTKAQVMQLAREKELMAGEGRGANVEALEKFANEHGISLRGMTEEQAEQLVKLLMEYTP”, the “soluble fraction (log2)” value was 0.19.
For “HMPPRFVPATGADLRRWLDVSGLTAEAAGDLLGVSGARFRQWLSRYRSAPLPDPVRALLVALLRP”, the “soluble fraction (log2)” value was -0.156.
In the case of “HMPPSRFNELSMWFQEQLTEAGLKVDSGALKMLIEWLGQDQARLPSIIEVLVSTYGTKKKLTVDEIEPFL”, the “soluble fraction (log2)” value is reported as -1.02.
For “HMPPTSADGIEKYLASGMIRGVGPVYAKKLVSAFGDKVFDIIEAAPHQLQEVEGIGRVRAASILAAWAEQ”, the “soluble fraction (log2)” value was -0.0654.
In the case of “HMPQLEDLEPLDSSGMVRRDGPHLVLAVGRHRGRHLEEVRDSDPSYLHWLLSPKGIEDIQAKEDIKTYLNL”, the “soluble fraction (log2)” value is reported as -0.302.
With “HMPQLVGDVDGDGRVSVTDGEWIRASYGALPWYAGWRAAADLDGSRKIDVVDLELLRTKMGN” the “soluble fraction (log2)” value was -0.772.
With “HMPRIYSITINPEKIRTVIGPGGKVIKDITAKTGTKIEIDDSGKVDIFSPDEEHARMAVEIINTLTEE” the “soluble fraction (log2)” value was -0.221.
With “HMPRKYFPFYFTFRETAQTMPPRLRAVFYEAIIEYGTTGKEPTLPKSIAGYWPLVKPTLDSAKAHYDAG” the “soluble fraction (log2)” value was -0.0316.
With “HMPRNEIQRSVLNELVQWIKNNLAKKLTMQALSRFSGYSEWHLFRLFRHYFNMSPMAYIRQQRMQ” the “soluble fraction (log2)” value was -0.359.
For “HMPRPRIHSVVRGDTLYGISRQYGVAMSKLASLNGLKSPYRIMVGRSLRLPSAIEAERDRTAREVVQ”, the “soluble fraction (log2)” value was 0.208.
In the case of “HMPRVLSSYTLTLRHQPTAEAVALVRTLLSPAGSVEVKEDGRTLVVRDELAALSRIVGALRSFDH”, the “soluble fraction (log2)” value is reported as -0.139.
For “HMPRVSIEKIKKVVELLKHNPDYTYSKIGNIVGIGRKTVSGINNGKLYTDLVEELGINEFPI”, the “soluble fraction (log2)” value was 0.0348.
In the case of “HMPRYQQIARQLKTAIEHGELKPGARLPSSRTWSQELGISRSTVESAYTELVAQGWLERRGQAGTFVSAQL”, the “soluble fraction (log2)” value is reported as 0.0517.
With “HMPRYSGMFAAWLHKALARMGKSMSDSARSAFTERVELDYSSANNELQKLSLLVGDRKVITEADVMRAIG” the “soluble fraction (log2)” value was -0.0455.
For “HMPSALGDKIRAARKALKLSLEDLAEKVSSSKSYMWELENRDEPNPGADLLMRIAAALNVTTEHLLGP”, the “soluble fraction (log2)” value was -0.0842.
With “HMPSDLQATLRAVQGMLQGVEGVDARLAGQRILLEGDSADARARERAAAIAGIFPGVVIDFVG” the “soluble fraction (log2)” value was 0.062.
With “HMPSEAVQNIIGNVKSKRRVATIGQARGLASNVIKEGKFDNVSNTAMVNRLIDLGIISNSIGYQ” the “soluble fraction (log2)” value was 0.283.
In the case of “HMPSEQGANKARDIIFRHHMKVDVWVGSWENARNYAEQAIKQGVKVIISRGGTAALLRHSLDTAIIKVR”, the “soluble fraction (log2)” value is reported as 0.22.
For “HMPSGLFEPIKKSELSIESIDLLKDQIRAFKQADIRITFGFLLDLITKGENPAYVNASKLFEQAWER”, the “soluble fraction (log2)” value was -0.241.
For “HMPSPSTLAKVDPFLLVTNADSLLMARPDDSELRAAIITAHINLAKTNNSVDHYKEVLKIEPQNALANYN”, the “soluble fraction (log2)” value was 0.0418.
With “HMPSPTPEQVLKAFTDAAMQKNTVEELKQAFAKAWKMLEGTPEQHKAQDVYNIRRDELEGAA” the “soluble fraction (log2)” value was -0.0378.
With “HMPSSIEGIEKYLGSGMIRGIGAVYAKRLVKQFGKDVFDIIEETPERLREVEGIGPIRAARIISGWADQ” the “soluble fraction (log2)” value was -0.154.
For “HMPTITSPMVGTFYRAPSPGAAPFIEVGDTVKKGQVIGIIEAMKLLNEVEADKDGVVQAFAAENGEL”, the “soluble fraction (log2)” value was -0.681.
In the case of “HMPTLNIVDGHIAASDGVRILSIHNVTGRRYATSSKLPAGIYIVVLMPAKAETPLTVKVIVEA”, the “soluble fraction (log2)” value is reported as -0.17.
With “HMPTMTDIPIKIIRSRRRTLAIEVREGGEVIVRAPLYSRKAEIDAFVKAHENWIITKYNLMITKQN” the “soluble fraction (log2)” value was 0.352.
In the case of “HMPTPRVPMSKQRQILQLLQDGHLSTREIAAALHISKTSVGDIAKAARLAGLDWEAASKLSDEELSARIYK”, the “soluble fraction (log2)” value is reported as 0.0991.
With “HMPTSPKANFLKELPQEFTRKQAVTIGDKLNIKERTVDNYLAKLEQAGYLVKPKAGYYQKIKS” the “soluble fraction (log2)” value was 0.22.
